Measured values reported in the RNAGym collection of RNA variant scans (doi:10.1073/pnas.2313332121).

B1: TPR t1 (parent)
chain: GACCAAUCUGCCCUCAGAGCUCGAGAACAUCUUCGGAUGCAGAGGAGGCAGGCUUCGGUGGCGCGAUAGCGCCAACGUCCUCAACCUCCAAUGCAUCCCACCACAUGAUGAUGCCUGAAGAGCCUUGGUUUUUUG

Variants of: B1
Experiment: polymerase ribozyme fitness, log enrichment relative to wild type (log ratio); higher = more active; in vitro selection for triplet polymerase activity
Outline: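 Libraries of mutants in each subunit of a heterodimeric triplet polymerase ribozyme were generated by PCR and transcribed. In triplicate, each went through one in vitro selection round: annealing with biotinylated primer, partner subunit and triplets; frozen incubation at −7 °C; gel excision of extended constructs; streptavidin-bead capture; RT-PCR. Fitness, taken from Illumina sequencing of input and output libraries, is the logarithm of a genotype's enrichment over wild-type enrichment, averaged across replicates with inverse-variance weights. The logarithm is base 2, and genotypes needed ≥10 input reads and ≥1 read per output to be kept.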

Variant	polymerase ribozyme fitness (log ratio)
G36A A83C	-1.41
G36C C98G	-6.86
G35C A83U A121G U126A	-4.11
G35C U59C C124A	-3.15
G36U A84C G110A	-2.43
G35A A100G	-6.42
G35C G61C C79G	-6.99
G36A A46U G60C C124U	-0.384
C34U G63U G69A A84G	-6.86
G35A U87G	-3.91
G36A G63A U78C	-1.53
C34U G65C C70U G117C A121C	-7.03
C34U G61C C102U C124U	-4.34
G36C C76U C123U	-0.606
G36A A46U A83G	-3.05
G36U A37C C104U	-1.76
C34U G61C C80U A83G	-7.08
C34U G42C	-6.44
G36U C73G U106A G127C	-2.55
C34U C102U	-2.22
G35U C101A G113C	-6.29

Variant	polymerase ribozyme fitness (log ratio)
G35A C53G C70A C104U G117U C124G U126G	-6.92
C34U C73A C102U C123A	-3.14
G36A U129G	-2.39
C34U G63A A90G	-6.16
G36A G47C C124U	-0.979
C34U G69A	-5.14
C34U G120A	-3.93
C34U G120C	-3.96
G36A C62A C102A	-5.26
G35A C99U U112A	-3.32
G36A C70A C114A	-5.75
G36A G42A U54G C72U A75U	-2.79
G35A G113C	-5.03
G36C C53U U55G G113C G120C	-2.92
G36A U92A C115U	-4.93
G36A G93C	-1.47
G35U U112C	-3.04
G36A G61U A103C A118U	-6.19
G35A G61U	-3.61
G36A C72U U116C	-1.78
C34U C104U U112C	-2.1

Variant	polymerase ribozyme fitness (log ratio)
G35A C123A	-3.41
G36C C94U C97U	-1.57
C34U C88G C123G	-3.83
G36A C73U G127C	-2.76
G36C G69U U132C	-0.866
G36A G52A A66G C79G	-2.84
G36A G42U C53U U55G C86U G110U	-6.5
G35A U129A	-5.19
G36C G57U A90C U106A	-3.67
G36U C104A	-2.99
G35U U130C	-5.09
G35A U59C	-4.9
G36C C49A C79U C101G	-2.06
C34U G60U	-3.24
C34U G60A	-5.21
G36A G61C G93C G110A	-6.04
G35U A119U A121C C124A	-4.47
G36C C123U	-0.107
C34U C73A	-4.32
C34U C73U	-3.35
G36C C76A C79U A121U	1.44

Variant	polymerase ribozyme fitness (log ratio)
C34U U112G	-3.89
C34U U112C	-2.16
G35A C62A A119G	-4.46
C34U G58A C99U	-4.17
G36A U55G U87A	-1.87
G35U C72U	-4.43
C34U G35U	-4.9
G36A C72A C97U A121G	1.78
G36A U125G	-1.83
G36U A68C C70U U87A G117U	-5.69
G36A G57A	-1.38
G35U C72U G117C	-7.07
G36C U92A A118U	-3.89
G36U C123A	-0.268
G36U C123G	0.712
G36U A74G A83U C101G	-3.95
G36A G52C	-2.17
C34U C85U C102U	-3.64
G36C C98U U129A	-3.81
G36A G61A G77A	-1.53
